Experimental data as given in PMC5209314, “Purification and characterization of a novel glutamate dehydrogenase from Geotrichum candidum with higher alcohol and amino acid activity” (AMB Express, 2017).

How the values were obtained:
purified protein [1] = substrate: NC(=O)C1=CN([C@@H]2O[C@H](COP(=O)(O)OP(=O)(O)OC[C@H]3O[C@@H](n4cnc5c(N)ncnc54)[C@H](OP(=O)(O)O)[C@@H]3O)[C@@H](O)[C@H]2O)C=CC1; test: purified protein; format: biochemical, Geotrichum candidum; conditions: pH 4.0, 30 °C, printed unit doubtful: tested 0.01-0.1 mmol/L and same column is mM in abstract, so probably mmol/L, varied: cofactor
purified protein [2] = substrate: O=C(O)CCC(=O)C(=O)O; test: purified protein; format: biochemical, Geotrichum candidum; conditions: NADPH, NH4+, pH 4.0, 30 °C, Table 2 header prints μmol/L, abstract mM
purified protein [3] = substrate: N[C@@H](CCC(=O)O)C(=O)O; test: purified protein; format: biochemical, Geotrichum candidum; conditions: NADP+, pH 4.0, 30 °C, Table 2 header prints μmol/L, abstract mM, competitive with hexanol, b65 prints other Michaelis constants (61.02 and 13.43 mM, both called glutamate)
purified protein [4] = substrate: N; test: purified protein; conditions: pH 4.0, 30 °C, printed unit doubtful: tested 5-50 mmol/L and same column is mM in abstract, so probably mmol/L
[5] = substrate: CCCCCCO; test: GC of substrate decrease, Lineweaver-Burk; format: biochemical, Geotrichum candidum; conditions: NADP+, pH 4.0, 30 °C, Table 2 header prints mol/L, abstract mM
[6] = substrate: CC(C)CCO; test: GC of substrate decrease, Lineweaver-Burk; format: biochemical, Geotrichum candidum; conditions: NADP+, pH 4.0, 30 °C, Table 2 header prints mol/L, abstract mM

B1: glutamate dehydrogenase (GDH) from Geotrichum candidum S12 (Geotrichum candidum) (protein)
chain: MVQPSEPEFEQAYNELLSTLKDSTLFEKRPELEKVIPIVSIPERVLQFRVVWEDDNGVAQVNRGYRVQFNSALGPYKGGLRFHPTVNLSILKFLGYEQIFKNALTGLNMGGGKGGSDFDPKGKSDSEIRRFCVAFMGELHRHIGADTDVPAGDINVGGREIGYLFGAYKKFKNTWEGVLTGKGLTWGGSLIRPEATGYGVVYYVEKMIEYATQGKESFAGKTVAISGSGNVAQYAALKVIELGGTVVSLSDSKGAFIATTAEGFTPAEIAEIADIKVSHAQLSTLADKFASKFKYLEGARPWVHVKADVALPCATQNEVSGEEAEALVANGTKFIAEGSNMGSTQEAIDVFEAERLKNPQGIWYAPGKAANAGGVAVSGLEMAQNSQRGNWSTEEVDQRLKEIMVNIFNTSVSTAVEYSSEKGDSLPSLVKGANIAGFVKVADAMHDHGDFW
notes: identified by PMF similarity to Yaliof17820p (Yarrowia homologue)
Km (purified protein [1]): 0.00013 mM | Km (purified protein [2]): 4.01 mM | Km (purified protein [3]): 41.74 mM | Km (purified protein [4]): 0.00535 mM | Km [5]: 20.37 mM | Km [6]: 19.37 mM
